According to publication PMC2894447:
Each block holds one molecule with its values, some of them ahead of it.

Key:
[1] = biological target: Rabbit skeletal muscle actin, monomeric (G-actin), 100% pyrene labeled (rabbit) (UniProt P68135); assay: other fluorescence titration
[2] = biological target: APC-B-ΔN4; assay: SEC + other: sucrose gradient sedimentation velocity

- Kd [1]: 17.3 nM
Molecule: APC-B, the C-terminal Basic domain of adenomatous polyposis coli protein (domain or fragment)

- stoichiometry N [2]: 1.97
B1: APC-B-ΔN4 (domain or fragment)
chain: ASTKSSGSGKMSYTSPGRQMSQQNLTKQTGLSKNASSIPRSESASKGLNQMNNGNGANKKVELSRMSSTKSSGSESDRSERPVLVRQSTFIKEAPSPTLRRKLEESASFESLSPSSRPASPTRSQAQTPVLSPSLPDMSLSTHSSVQAGGWRKLPPNLSPTIEYNDGRPAKRHDIARSHSESPSRLPINRSGTWKREHSKHSSSLPRVSTWRRTGSSSSILSASSESSEKAKSEDEKHVNSISGTKQSKENQVSAKGTWRKIKENEFSPTNSTSQTVSSGATNGAESKTLIYQMAPAVSKTEDVWVRIEDCPINNPRSGRS
modifications: not checked
